System: pygo null mutant clones in wing discs
Assay: Rescue assays in Drosophila pygo null mutant clones
Type: in vivo
Conditions: for rescue of pygo mutant phenotypes (notches and bristle defects): anterior wing margin of adult flies bearing pygo mutant clones, overexpression; for rescue of senseless expression: overexpression by GAL4 system in pygo null mutant wing disc clones, third instar larvae
Text: To test whether the binding of Pygo to H3K4me is important for its function in vivo, we conducted rescue assays in Drosophila ([de la Roche and Bienz, 2007]). We introduced a point mutation into V757 (in EVND) of Drosophila Pygo, which corresponds to V350 of hPHD that lines its K4me pocket (Figure 4B) and whose mutation drastically reduces its binding to H3K4me3 (Figure 4E). We then generated pygo null mutant clones in wing discs, one of the best-characterized Wingless-responsive tissues whose development depends on Pygo function ([Belenkaya et al., 2002; de la Roche and Bienz, 2007; Kramps et al., 2002; Parker et al., 2002; Thompson et al., 2002]), and we used the GAL4 system to overexpress the Pygo-V757E mutant in these clones, to test its rescue activity in this tissue.
HA-tagged Pygo-V757E was constructed in pUAST, and multiple independent transformant lines were isolated, as described previously for WT HA-Pygo ([Townsley et al., 2004b]). Two different lines were each tested for rescue activity of pygo null mutant clones in the wing disc, as described ([de la Roche and Bienz, 2007]).

| Molecule | rescue of pygo mutant phenotypes (notches and bristle defects) | rescue of senseless expression |
| --- | --- | --- |
| WT Pygo: overexpressed wild-type HA-tagged Drosophila Pygo (protein, UniProt Q9V9W8 1-815, looked up, HA tag) Protein pygopus: MTHNLGMAPYRLPGPAGGLCPPDFKPPPPTDIISAPSNPKKRRKTSSAANSAAAVAAAAAAAAAANSMQQQQAPPTPQDLLPPPPMGGFGDTIIASNPFDDSPQVSAMSSSAAAAMAAMNQMGGGPGGGHFGGGGPGGHPHWEDRMGMGGGPPPPPHMHPHMHPHHPGGPMGHPHGPHPHMGGPPPMRGMSPMHPHQMGPGPGVGLPPHMNHGRPGGPGGPGGPVPMGSPMGGIAGMGGMSPMGGMGGPSISPHHMGMGGLSPMGGGPNGPNPRAMQGSPMGGPGQNSPMNSLPMGSPMGNPIGSPLGPPSGPGPGNPGNTGGPQQQQQQPPQPPMNNGQMGPPPLHSPLGNGPTGHGSHMPGGPIPGPGPGPGGLVGPGGISPAHGNNPGGSGNNMLGGNPGGGNSNNNGSNTSNASNNNQNPHLSPAAGRLGVPTSMQSNGPSVSSVASSSVPSPATPTLTPTSTATSMSTSVPTSSPAPPAMSPHHSLNSAGPSPGMPNSGPSPLQSPAGPNGPNNNNSNNNNGPMMGQMIPNAVPMQHQQHMGGGPPGHGPGPMPGMGMNQMLPPQQPSHLGPPHPNMMNHPHHPHHHPGGPPPHMMGGPGMHGGPAGMPPHMGGGPNPHMMGGPHGNAGPHMGHGHMGGVPGPGPGPGGMNGPPHPHMSPHHGHPHHHHNPMGGPGPNMFGGGGGGPMGPGGPMGNMGPMGGGPMGGPMGVGPKPMTMGGGKMYPPGQPMVFNPQNPNAPPIYPCGMCHKEVNDNDEAVFCESGCNFFFHRTCVGLTEAAFQMLNKEVFAEWCCDKCVSSKHIPMVKFKC | rescued all pygo mutant phenotypes | restored expression of senseless |
| Pygo-V757E: HA-tagged Drosophila Pygo with point mutation in V757 (in EVND) (protein, UniProt Q9V9W8 1-815, looked up, variant V757E, HA tag) Protein pygopus: MTHNLGMAPYRLPGPAGGLCPPDFKPPPPTDIISAPSNPKKRRKTSSAANSAAAVAAAAAAAAAANSMQQQQAPPTPQDLLPPPPMGGFGDTIIASNPFDDSPQVSAMSSSAAAAMAAMNQMGGGPGGGHFGGGGPGGHPHWEDRMGMGGGPPPPPHMHPHMHPHHPGGPMGHPHGPHPHMGGPPPMRGMSPMHPHQMGPGPGVGLPPHMNHGRPGGPGGPGGPVPMGSPMGGIAGMGGMSPMGGMGGPSISPHHMGMGGLSPMGGGPNGPNPRAMQGSPMGGPGQNSPMNSLPMGSPMGNPIGSPLGPPSGPGPGNPGNTGGPQQQQQQPPQPPMNNGQMGPPPLHSPLGNGPTGHGSHMPGGPIPGPGPGPGGLVGPGGISPAHGNNPGGSGNNMLGGNPGGGNSNNNGSNTSNASNNNQNPHLSPAAGRLGVPTSMQSNGPSVSSVASSSVPSPATPTLTPTSTATSMSTSVPTSSPAPPAMSPHHSLNSAGPSPGMPNSGPSPLQSPAGPNGPNNNNSNNNNGPMMGQMIPNAVPMQHQQHMGGGPPGHGPGPMPGMGMNQMLPPQQPSHLGPPHPNMMNHPHHPHHHPGGPPPHMMGGPGMHGGPAGMPPHMGGGPNPHMMGGPHGNAGPHMGHGHMGGVPGPGPGPGGMNGPPHPHMSPHHGHPHHHHNPMGGPGPNMFGGGGGGPMGPGGPMGNMGPMGGGPMGGPMGVGPKPMTMGGGKMYPPGQPMVFNPQNPNAPPIYPCGMCHKEENDNDEAVFCESGCNFFFHRTCVGLTEAAFQMLNKEVFAEWCCDKCVSSKHIPMVKFKC | WT Pygo but not Pygo-V757E rescued all pygo mutant phenotypes | no rescue whatsoever was observed |
